From paper PMC9352680, “A comprehensive thermodynamic model for RNA binding by the Saccharomyces cerevisiae Pumilio protein PUF4”

T1: PUF4 RNA-binding domain (Saccharomyces cerevisiae, UniProt P25339 537-888)
T1 sequence: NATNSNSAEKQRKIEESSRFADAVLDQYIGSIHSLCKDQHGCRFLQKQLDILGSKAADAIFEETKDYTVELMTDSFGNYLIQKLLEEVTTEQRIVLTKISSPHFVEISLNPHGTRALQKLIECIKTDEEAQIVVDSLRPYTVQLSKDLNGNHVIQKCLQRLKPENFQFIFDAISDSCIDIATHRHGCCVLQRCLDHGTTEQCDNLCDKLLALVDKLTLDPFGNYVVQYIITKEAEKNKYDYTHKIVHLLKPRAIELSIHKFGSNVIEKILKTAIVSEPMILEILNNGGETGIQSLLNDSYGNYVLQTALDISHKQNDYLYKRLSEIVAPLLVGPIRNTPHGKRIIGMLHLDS


The binders below were run against T1, PUF4 RNA-binding domain (assay: Mg; RNA-MaP; 20 mM Na-HEPES pH 7.4, 30 mM KOAc, 0.75 mM MgCl2, 0.1% Tween-20, 5% glycerol, 0.1 mg/mL BSA, 2 mM DTT; 25 C; 0.0125-409.6 nM protein). Conditions: tags: N-His6-TEV cleaved; C-SNAP kept, Cy3B-labelled; label: tethered on chip by stalled RNA polymerase.

Row | Binder | Kd
1 | UCUCUUUAUGUAUAUUACCUCUCUU (ssRNA) [Id_ii_S1_P4E.2_K4.1_C4.2_[C-2T]_[T-1A]_H4.1_A4.1_F4.1_T4.2_[G10C]_[T11C]] | 0.854 nM
2 | UCUCUUUAUGUAUAUUAACUCUCUU (ssRNA) [Id_ii_S1_P4E.2_K4.1_C4.2_[C-2T]_[T-1A]_H4.1_A4.1_F4.1_T4.2_[G10A]_[T11C]] | 1.35 nM
3 | UCUCUUUAUAUAGUAUCUCUU (ssRNA) [Ib_S1_P4E.1_K4.1_C4.1_H4.1_[G2A]_A4.1_[T7G]_F4.1_T4.1] | 50.5 nM
4 | UCUCUUCUACACUAUAACUCUCUU (ssRNA) [Id_ii_S1_P3E.4_K3.3_C3.2_H3.3_A3.1_F3.1_T3.2_[T9A]_[A10C]] | > 2300 nM
5 | UCUCUUCAACACUAUACCUCUCUU (ssRNA) [Id_ii_S1_P3E.4_K3.3_C3.2_[T-1A]_H3.3_A3.1_F3.1_T3.2_[T9C]_[A10C]] | > 2300 nM
6 | UCUCUUGUUGUAUAUUAGUUCUCUU (ssRNA) [Id_ii_S1_P4E.2_K4.1_C4.2_[C-2G]_H4.1_A4.1_F4.1_T4.2] | 0.355 nM
7 | UCUCUUUCUGUAUAUUACUUCUCUU (ssRNA) [Id_ii_S1_P4E.2_K4.1_C4.2_[C-2T]_[T-1C]_H4.1_A4.1_F4.1_T4.2_[G10C]] | 0.672 nM
8 | UCUCUUCAACACUAUAAAUCUCUU (ssRNA) [Id_ii_S1_P3E.4_K3.3_C3.2_[T-1A]_H3.3_A3.1_F3.1_T3.2_[T9A]] | > 2300 nM
9 | UCUCUUUAUGUAUAUUAGUUCUCUU (ssRNA) [Id_ii_S1_P4E.2_K4.1_C4.2_[C-2T]_[T-1A]_H4.1_A4.1_F4.1_T4.2] | 0.379 nM
10 | UCUCUUCUACACUAUAAUUCUCUU (ssRNA) [Id_ii_S1_P3E.4_K3.3_C3.2_H3.3_A3.1_F3.1_T3.2_[T9A]_[A10T]] | 1870 nM
11 | UCUCUUUGUGUAUAUUAAUUCUCUU (ssRNA) [Id_ii_S1_P4E.2_K4.1_C4.2_[C-2T]_[T-1G]_H4.1_A4.1_F4.1_T4.2_[G10A]] | 1.63 nM
12 | UCUCUUUCUGUAUAUUAUGUCUCUU (ssRNA) [Id_ii_S1_P4E.2_K4.1_C4.2_[C-2T]_[T-1C]_H4.1_A4.1_F4.1_T4.2_[G10T]_[T11G]] | 0.963 nM
13 | UCUCUUUGUGUAUAUUAUGUCUCUU (ssRNA) [Id_ii_S1_P4E.2_K4.1_C4.2_[C-2T]_[T-1G]_H4.1_A4.1_F4.1_T4.2_[G10T]_[T11G]] | 0.968 nM
14 | UCUCUUUCUGUAUAUUAUAUCUCUU (ssRNA) [Id_ii_S1_P4E.2_K4.1_C4.2_[C-2T]_[T-1C]_H4.1_A4.1_F4.1_T4.2_[G10T]_[T11A]] | 0.738 nM
15 | UCUCUUCAACACUAUAACUCUCUU (ssRNA) [Id_ii_S1_P3E.4_K3.3_C3.2_[T-1A]_H3.3_A3.1_F3.1_T3.2_[T9A]_[A10C]] | > 2300 nM
16 | UCUCUUUGUGUAUAUUAGUUCUCUU (ssRNA) [Id_ii_S1_P4E.2_K4.1_C4.2_[C-2T]_[T-1G]_H4.1_A4.1_F4.1_T4.2] | 0.304 nM

Row | Binder | Kd
17 | UCUCUUUAUAUACUAUCUCUU (ssRNA) [Ib_S1_P4E.1_K4.1_C4.1_H4.1_[G2A]_A4.1_[T7C]_F4.1_T4.1] | 17.8 nM
18 | UCUCUUUUUAUAAUAUCUCUU (ssRNA) [Ib_S1_P4E.1_K4.1_C4.1_H4.1_[G2T]_A4.1_[T7A]_F4.1_T4.1] | 1450 nM
19 | UCUCUUUCUGUAUAUUAAGUCUCUU (ssRNA) [Id_ii_S1_P4E.2_K4.1_C4.2_[C-2T]_[T-1C]_H4.1_A4.1_F4.1_T4.2_[G10A]_[T11G]] | 2.74 nM
20 | UCUCUUCUACACUAUACAUCUCUU (ssRNA) [Id_ii_S1_P3E.4_K3.3_C3.2_H3.3_A3.1_F3.1_T3.2_[T9C]] | 2230 nM
21 | UCUCUUGCUGUAUAUUAUAUCUCUU (ssRNA) [Id_ii_S1_P4E.2_K4.1_C4.2_[C-2G]_[T-1C]_H4.1_A4.1_F4.1_T4.2_[G10T]_[T11A]] | 1.92 nM
22 | UCUCUUUGUGUAUAUUAUUUCUCUU (ssRNA) [Id_ii_S1_P4E.2_K4.1_C4.2_[C-2T]_[T-1G]_H4.1_A4.1_F4.1_T4.2_[G10T]] | 0.848 nM
23 | UCUCUUUGCACAUUAUCUCUU (ssRNA) [Ib_S1_P4E.1_K4.1_C4.1_H4.1_[T3C]_A4.1_[T5C]_F4.1_T4.1] | 36.2 nM
24 | UCUCUUGCUGUAUAUUACCUCUCUU (ssRNA) [Id_ii_S1_P4E.2_K4.1_C4.2_[C-2G]_[T-1C]_H4.1_A4.1_F4.1_T4.2_[G10C]_[T11C]] | 0.957 nM
25 | UCUCUUUGUGUAUAUUAAAUCUCUU (ssRNA) [Id_ii_S1_P4E.2_K4.1_C4.2_[C-2T]_[T-1G]_H4.1_A4.1_F4.1_T4.2_[G10A]_[T11A]] | 1.47 nM
26 | UCUCUUGUUGUAUAUUAUGUCUCUU (ssRNA) [Id_ii_S1_P4E.2_K4.1_C4.2_[C-2G]_H4.1_A4.1_F4.1_T4.2_[G10T]_[T11G]] | 1.07 nM
27 | UCUCUUUUUGUAUAUUACCUCUCUU (ssRNA) [Id_ii_S1_P4E.2_K4.1_C4.2_[C-2T]_H4.1_A4.1_F4.1_T4.2_[G10C]_[T11C]] | 1.09 nM
28 | UCUCUUCCACACUAUAUUUCUCUU (ssRNA) [Id_ii_S1_P3E.4_K3.3_C3.2_[T-1C]_H3.3_A3.1_F3.1_T3.2_[A10T]] | > 2300 nM
29 | UCUCUUCUACACUAUAUCUCUCUU (ssRNA) [Id_ii_S1_P3E.4_K3.3_C3.2_H3.3_A3.1_F3.1_T3.2_[A10C]] | 1460 nM
30 | UCUCUUUCUGUAUAUUAUCUCUCUU (ssRNA) [Id_ii_S1_P4E.2_K4.1_C4.2_[C-2T]_[T-1C]_H4.1_A4.1_F4.1_T4.2_[G10T]_[T11C]] | 0.77 nM
31 | UCUCUUUAUAUAAUAUCUCUU (ssRNA) [Ib_S1_P4E.1_K4.1_C4.1_H4.1_[G2A]_A4.1_[T7A]_F4.1_T4.1] | 61.4 nM
32 | UCUCUUGCUGUAUAUUAUGUCUCUU (ssRNA) [Id_ii_S1_P4E.2_K4.1_C4.2_[C-2G]_[T-1C]_H4.1_A4.1_F4.1_T4.2_[G10T]_[T11G]] | 2.24 nM
